Reference: the supplement of paper PMC12764529
± gives the half width of the 95% confidence interval.

How the values were obtained:
[1] = folding stability dG unfold from trypsin proteolysis; higher = more stable
Method in brief: (§1)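 Only designs with AlphaFold2 dimer inter-PAE above 15 were retained; each was a mini-protein under 80 residues with no cysteine, in a PA-tagged cDNA display construct. After digestion with trypsin and chymotrypsin and sequencing, K50 was inferred by Bayesian fitting of counts, and unfolding free energy was derived per protease or combined against a sequence-predicted unfolded-state K50 and a shared folded-state K50.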

[2] = folding stability dG unfold from chymotrypsin proteolysis; higher = more stable
Method in brief: as §1

[3] = folding stability dG unfold (combined trypsin and chymotrypsin); higher = more stable
Method in brief: as §1

| Sequence | folding stability dG unfold [1] | folding stability dG unfold [2] | folding stability dG unfold [3] |
| --- | --- | --- | --- |
| MEIKKIELKVEEKDGKLVLTVKIEVFDKNGKLVKKVEIKLEVPKELKEGQSLEELPLSEELRKLVKELLEKS [r1_354_TrROS_Hall] | 3.11 ± 0.26 kcal/mol | 3.79 ± 0.34 kcal/mol | 3.54 ± 0.7 kcal/mol |
| SAGGSAGGSAGMIVLFPLEEKKFIIYDPETGKVEEIEGTPEEVLEYAKKKYPDKEVYLLPSAGGSAGGSAGG [r11_614_TrMRF] | 3.25 ± 0.36 kcal/mol | 5.19 ± 0.3 kcal/mol | 5.15 ± 0.49 kcal/mol |
| SAGPWITIPFKVKSLEEARNIIREIAQTFGLPMKVEDIQVTEDQLEKNREPGDPIRITVRYPNGREIEISAG [r5_503_TrROS] | 1.64 ± 0.065 kcal/mol | 1.69 ± 0.11 kcal/mol | 1.64 ± 0.11 kcal/mol |
| SAGGSAMSPEEVEEKIKEIAKKLGVEIEVKVEISPEGGIKITVKVNDKFDINEIKKGIEEALGIKLSAGGSA [r15_807_JUSTAS] | 4.4 ± 0.55 kcal/mol | 2.65 ± 0.16 kcal/mol | 3.94 ± 0.45 kcal/mol |
| SAGGMKTYTVTVEREVPDPSSDKWVYSTETLTIPYNVDPKTGTTPEEVAEELKAALPPDVLRVEFTDESAGG [r13_335_JUSTAS] | -0.166 ± 0.14 kcal/mol | 0.468 ± 0.21 kcal/mol | 0.317 ± 0.13 kcal/mol |
| SAGGNSMTILFIFPENGWIIRITIKFPDGNGKIDDIDIEREPVPNGQVKYTIRMPDGMEISVEIIPLDSAGG [r13_515_TrROS] | 3.99 ± 0.1 kcal/mol | 5.57 ± 0.15 kcal/mol | 5.52 ± 0.33 kcal/mol |
| SAGGSAGGSAMTAREIADELVKEGKEVKVTVRRPGEEKEITVTKEGEPLPPGAEIVKIEEVSAGGSAGGSAG [r3_421_TrROS_Hall] | -0.678 ± 0.19 kcal/mol | 0.187 ± 0.08 kcal/mol | 0.0343 ± 0.14 kcal/mol |
| SAGGSAGGSAGGKKPVKITEIHRNPGPNWIRIRIPGNGRPIPIPVPPGKKLTLEDALDFSAGGSAGGSAGGS [r10_844_TrROS] | -0.648 ± 0.38 kcal/mol | -0.0211 ± 0.29 kcal/mol | -0.304 ± 0.19 kcal/mol |
| SAGGSAGGSAGFKSVTIGSGTGGLTLTITDVTTGKNTVVNATSLEEAEKIGKEKGWKIILSSAGGSAGGSAG [r3_67_JUSTAS] | 0.604 ± 0.07 kcal/mol | -0.281 ± 0.4 kcal/mol | 0.305 ± 0.15 kcal/mol |
| SAGGSAGGSAGGPKVEVLEVFEFGDLRFVKVYDPETGKVTLLAVTRSDGSKVTFFNPEESAGGSAGGSAGGS [r10_655_TrMRF] | 1.42 ± 0.056 kcal/mol | 2.58 ± 0.053 kcal/mol | 2.23 ± 0.15 kcal/mol |
| SAGGRRKIEFEVWIPMDKDGEITPNEIIEEAREIAEALPNFDNVEIEEISIQHHPDGWTRYNITIEVPSAGG [r13_462_TrROS] | 2.16 ± 0.16 kcal/mol | 2.42 ± 0.058 kcal/mol | 2.31 ± 0.31 kcal/mol |
| SAGGSAGGSAWRLYIGGQKIEIPPGGPVKLERHKNGWVKIEIKMPGGRKKEFTIPIPPGATSAGGSAGGSAG [r3_207_TrROS] | 1.23 ± 0.14 kcal/mol | 1.76 ± 0.17 kcal/mol | 1.66 ± 0.18 kcal/mol |
| SAGGSAGGSAGPVVVEVDGKLVIFNPEDGTVTVFEFDKDGKLVEEKEFTVPPEVTLVEEDSAGGSAGGSAGG [r17_385_TrROS_Hall] | 1.42 ± 0.11 kcal/mol | 1.06 ± 0.039 kcal/mol | 1.27 ± 0.13 kcal/mol |
| SAGGSAGGSAGGKMKPVTIYIKNKDGSTAKLKVINGKVEITFPNGEKKTISAKDLKIYKSAGGSAGGSAGGS [r10_1176_TrROS_Hall] | 0.631 ± 0.086 kcal/mol | 1.49 ± 0.13 kcal/mol | 1.22 ± 0.17 kcal/mol |
| SAGGSAGGSAGMVYITKGKDGIWYEAEVDPTKPGAKVKVRHPLTGKEEEITPAEVVAVPPSAGGSAGGSAGG [r11_822_TrMRF] | 0.141 ± 0.15 kcal/mol | -0.546 ± 0.6 kcal/mol | 0.155 ± 0.42 kcal/mol |
| SMKITIVENEDGSLKIKVYFKDTGKVVEKTFEKGETIEEQVKKLAEELEKELGLEVVDVEIVKLPPPEKPSA [r9_1205_TrROS_Hall] | 2.63 ± 0.23 kcal/mol | 3.74 ± 0.096 kcal/mol | 3.57 ± 0.12 kcal/mol |
| SAGKTITVTSTHPDGRTATVTYTTLPDGSFKITSFTWEPWPDGTVTAKITTPDGTVITVNSIDDILKALSAG [r5_618_TrMRF] | 2.4 ± 0.1 kcal/mol | 3.52 ± 0.05 kcal/mol | 3.27 ± 0.099 kcal/mol |
| SAPEVEVFPGKDNSALVRVVFEFDGYRIEVVRRVPVEALKAGIPLEELPDVEILEVRVVKLPKPRPDELSAG [r14_856_TrMRF] | 2.17 ± 0.056 kcal/mol | 2.85 ± 0.029 kcal/mol | 2.58 ± 0.061 kcal/mol |

| Sequence | folding stability dG unfold [1] | folding stability dG unfold [2] | folding stability dG unfold [3] |
| --- | --- | --- | --- |
| SAGGSAGGSLKKGEKVKLRARIYEPGGGKLLAELEIEADVGKAEEIAEELRKAFPGYEVEIELSAGGSAGGS [r12_21_TrMRF] | 2.67 ± 0.036 kcal/mol | 3.24 ± 0.057 kcal/mol | 3.04 ± 0.07 kcal/mol |
| SAGGSMPKGQEVKIEIEHRRHNGRRYWRVSVEVPNGKDIEIPFDDPEEMPPEMKKQIENLAKEIVKSAGGSA [r2_17_TrROS] | 0.146 ± 0.11 kcal/mol | 1.11 ± 0.25 kcal/mol | 0.874 ± 0.26 kcal/mol |
| SMTVEVELTVTVEVVDPKTGKKKTVTVKVTVKVRVTEVKTKDGKTEVKVELSEEALEEARRLAEELAKKKSA [r9_698_TrROS_Hall] | 3.13 ± 0.13 kcal/mol | 2.95 ± 0.38 kcal/mol | 2.89 ± 0.46 kcal/mol |
| SASSSSSSYNVTIDPATGTVTVTNPDGSTTTVPPGSTLTVTSTSSDGGSALGSSTPSTSTTTIPVPAGTSAG [r14_366_JUSTAS] | 1.05 ± 0.05 kcal/mol | 0.699 ± 0.091 kcal/mol | 0.919 ± 0.071 kcal/mol |
| SAGGSAGGSAGGLPPDVRLRVRITRPDGTVLEFDAPADVEIFFPDVPPEWRIEVDAEDVSAGGSAGGSAGGS [r10_774_TrMRF] | 0.732 ± 0.061 kcal/mol | 2.49 ± 0.057 kcal/mol | 2.09 ± 0.16 kcal/mol |
| SAGGSAGGSMVVVRRLPDGRYLLEVRLEGESLRFEVDGEEEVERFAKALEELTGRPVEVLTVESAGGSAGGS [r12_783_TrMRF] | 4.56 ± 0.12 kcal/mol | 3.84 ± 0.043 kcal/mol | 4.15 ± 0.061 kcal/mol |
| SMEIKIEITYDKDTNYLVIKVTIKLKTKTVDKKTKKVTEKEEEITLTLVIKLKPLKPGQKLKLEIKLFPESA [r9_1058_TrROS_Hall] | 3.24 ± 0.22 kcal/mol | 4.93 ± 0.33 kcal/mol | 4.4 ± 0.44 kcal/mol |
| SAGGSAMTVTVELEFEPVTVTDADGKEREVPVRVKVTAKVELVRDPETGELVERVEVTSIEIEVEPSAGGSA [r15_884_TrROS_Hall] | 1.73 ± 0.069 kcal/mol | 1.92 ± 0.079 kcal/mol | 1.87 ± 0.15 kcal/mol |
| SAGGWWIITIEFPNPEQIKKILEEAGWKVDIERRPNGSVTIFFPPDDVDKIKKAFPGFEINIHPIPPNSAGG [r13_261_TrROS] | 3.58 ± 0.11 kcal/mol | 4.45 ± 0.093 kcal/mol | 4.25 ± 0.089 kcal/mol |
| SAGGMMTIEELKKLPPGAKVGDKIKIRNPATGETFTVTVLPDGRIKIEVDGKIYELPPGAEIVEIEKSAGGS [r8_162_TrROS_Hall] | 1.93 ± 0.086 kcal/mol | 2.36 ± 0.076 kcal/mol | 2.17 ± 0.13 kcal/mol |
| SAGGSAGGSAGNMWDQALRAAREAKDQGDEEVVIHFPPNMKNWVKEWAEDLGWPIKIQPTSAGGSAGGSAGG [r11_371_TrROS] | 0.128 ± 0.17 kcal/mol | 0.027 ± 0.25 kcal/mol | -0.0966 ± 0.19 kcal/mol |
| SAGLRIEPTPDYIKITMPGPNMANEIIKKIQEHFGDIEIDDIKPEPYPNGNNRVTIWIPLKNLPPELLKSAG [r5_857_TrROS] | 0.895 ± 0.028 kcal/mol | 1.18 ± 0.085 kcal/mol | 1.06 ± 0.07 kcal/mol |
| SAGGSAGGSAMVITKTTASVEEVKEEIKKEYPNANVKITKVSTSADGKTTYKIEIKIPKNNKSAGGSAGGSA [r18_464_JUSTAS] | 0.586 ± 0.067 kcal/mol | 2.5 ± 0.033 kcal/mol | 2 ± 0.16 kcal/mol |
| SAGGSISVEELKKLPPDSTLTYTEGDKLYEIKVYKNPEGALSIEITEIDPNTGSPVKTEIVNLEELLSAGGS [r16_763_JUSTAS] | 1.63 ± 0.13 kcal/mol | 3.53 ± 0.075 kcal/mol | 3.21 ± 0.12 kcal/mol |
| SAGGSAALELVEEVSEFYDPNTGKKTTLVVARKDGKPILILIPPSGATVYDASNGNKLFEIPPELLSAGGSA [r15_85_JUSTAS] | 0.61 ± 0.03 kcal/mol | 1.16 ± 0.074 kcal/mol | 0.951 ± 0.065 kcal/mol |
| SAMEIEKIEIEKEEVNGKLYYRIRVKIINKETGKEIELELEFKSLEDALEALKKLPNITRVEITEIEPVSAG [r14_464_TrROS_Hall] | 3.55 ± 0.11 kcal/mol | 5.18 ± 0.091 kcal/mol | 4.93 ± 0.093 kcal/mol |
| SAFRIKIELWNPNGKPQEHTFPVPPGDPDKLVEEIEDEVQKHHPNDGYKMRAEILEVTPNGWVTIRIWYSAG [r14_622_TrROS] | 2.66 ± 0.077 kcal/mol | 3.01 ± 0.11 kcal/mol | 2.79 ± 0.18 kcal/mol |
